The values below come from patent publication US9644034B2, “Anti-RSPO2 antibodies and uses thereof” (OncoMed Pharmaceuticals, Inc., priority 2011, dated 2017).

In one test the test system is PN7 tumors. Put plainly: Serial transplantation of cells from treated PN7 tumors (tumorigenicity). Format: in vivo, NOD-SCID mice. The following applies: 90 cells injected, 40 days growth with no treatment; vs control antibody. The protocol:
The PN7 tumors described above were processed to yield single cell suspensions. Mouse cells were depleted from the cell mixtures using biotinylated anti-H2K^d and anti-CD45 antibodies and streptavidin-conjugated magnetic beads. The remaining human tumor cells were serially transplanted into a new cohort of mice. 90 tumor cells from each treatment group were injected into the flanks of NOD-SCID mice (n=10 mice per group). Tumors were allowed to grow for 40 days with no treatment and tumor volumes were measured with electronic calipers.

Test [1] concerns PN31 pancreatic tumor cells. The experiment in a line: PN31 pancreatic tumor xenograft growth in NOD/SCID mice. It is filed as in vivo. Particulars: vs control; antibodies 15 mg/kg once a week, gemcitabine once a week, intraperitoneal. As for the experimental part:
Dissociated PN31 pancreatic tumor cells (1×10^5cells) were injected subcutaneously into the flanks of 6-8 week old NOD/SCID mice. Tumors were allowed to grow for 61 days until they reached an average volume of 120 mm^3. The mice were randomized (n=10 per group) and treated with anti-RSPO1 antibody 89M5, anti-RSPO2 antibody 130M23, gemcitabine, a combination of 89M5 and gemcitabine, a combination of 130M23 and gemcitabine, or control antibody 1B7.11. Antibodies were dosed at 15 mg/kg once a week, and gemcitabine was dosed at […] once a week. Administration of the antibodies and gemcitabine was performed via injection into the intraperitoneal cavity. Tumor growth was monitored and tumor volumes were measured with electronic calipers at specific time points. Data are expressed as mean±S.E.M.

For the next test, the target named is T1, LGR5 (Homo sapiens, UniProt O75473).
T1 construct: ligating amino acids 22-564 of human LGR5 to an N-terminal FLAG tag; expressed in transfected cells; host or cells: HEK-293
T1 sequence (O75473 22-564): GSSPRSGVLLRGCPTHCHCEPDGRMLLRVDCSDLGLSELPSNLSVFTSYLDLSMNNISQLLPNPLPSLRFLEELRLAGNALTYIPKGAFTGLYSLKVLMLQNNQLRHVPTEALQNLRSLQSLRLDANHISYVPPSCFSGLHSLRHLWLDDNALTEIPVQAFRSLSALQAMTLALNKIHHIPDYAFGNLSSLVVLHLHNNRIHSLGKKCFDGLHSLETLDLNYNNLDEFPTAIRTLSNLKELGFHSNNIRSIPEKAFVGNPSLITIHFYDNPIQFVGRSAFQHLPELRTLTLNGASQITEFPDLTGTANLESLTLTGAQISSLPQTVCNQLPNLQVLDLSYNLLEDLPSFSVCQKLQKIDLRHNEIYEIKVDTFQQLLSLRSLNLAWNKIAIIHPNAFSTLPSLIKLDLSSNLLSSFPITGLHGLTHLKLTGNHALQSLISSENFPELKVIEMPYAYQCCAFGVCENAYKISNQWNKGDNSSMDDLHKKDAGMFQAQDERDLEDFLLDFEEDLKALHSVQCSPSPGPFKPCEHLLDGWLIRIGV
The experiment in a line: FACS binding of RSPO-Fc fusion proteins to LGR5 expressed on HEK-293 cells. The following applies: Fc fusion proteins 10 μg/ml. An excerpt: A cell surface LGR5 protein was generated by ligating amino acids 22-564 of human LGR5 to an N-terminal FLAG tag and to the transmembrane domain of CD4 and a C-terminal GFP protein tag using standard recombinant DNA techniques (FLAG-LGR5-CD4TM-GFP). RSPO-Fc constructs were generated using standard recombinant DNA techniques. Specifically, full-length human RSPO1, RSPO2, RSPO3 and RSPO4 were ligated in-frame to a human Fc region and the recombinant RSPO-Fc proteins were expressed in insect cells using baculovirus. The fusion proteins were purified from the insect medium using protein A chromatography.
(§1) HEK-293 cells were transiently transfected with the FLAG-LGR5-CD4TM-GFP construct. After 48 hours, transfected cells were suspended in ice cold PBS containing 2% FBS and heparin and incubated on ice in the presence of 10 μg/ml RSPO1-Fc, RSPO2-Fc, RSPO3-Fc, RSPO4-Fc, or FZD8-Fc fusion proteins for 15 minutes. A second incubation with 100 μl PE-conjugated anti-human Fc secondary antibody was performed to detect cells bound by the Fc fusion proteins. Cells were incubated with an anti-FLAG antibody (Sigma-Aldrich, St. Louis, Mo.) as a positive control and with an anti-PE antibody as a negative control. The cells were analyzed on a FACSCalibur instrument (BD Biosciences, San Jose, Calif.) and the data was processed using FlowJo software.
On the technique in general: In flow cytometry, cells or beads pass a laser one at a time.

The target of test [2] is T2, human RSPO1 (Homo sapiens, UniProt Q2MKA7).
T2 construct: followed by the two furin-like domains of RSPO1 (aa 34-135); expressed in transfected cells; host or cells: HEK-293
T2 sequence (Q2MKA7 34-135): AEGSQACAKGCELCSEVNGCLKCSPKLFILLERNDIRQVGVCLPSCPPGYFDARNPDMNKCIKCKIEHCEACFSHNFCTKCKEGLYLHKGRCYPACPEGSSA
Put plainly: FACS screening of hybridoma supernatants on HEK-293 cells expressing FLAG-RSPO1furin-CD4TM-GFP. It is filed as binding.
Description: Antibodies were generated against recombinant human RSPO1 protein amino acids 31-263 (R&D Systems, Minneapolis, Minn.). Mice (n=3) were immunized with RSPO1 protein using standard techniques. Sera from individual mice were screened against RSPO1 approximately 70 days after initial immunization using FACS analysis. The animal with the highest antibody titer was selected for final antigen boost after which spleen cells were isolated for hybridoma production. SP2/0 cells were used as fusion partners for the mouse spleen cells. Hybridoma cells were plated at 1 cell per well in 96 well plates, and the supernatants were screened against human RSPO1 by FACS analysis.
For FACS screening of anti-RSPO1 antibodies a chimeric fusion protein enabling cell surface expression of the N-terminal furin-like domains of human RSPO1 was constructed.
as §1, with “were” for “were transiently”, “FLAG-RSPOlfurin-CD4TM-GFP.” for “the FLAG-LGR5-CD4TM-GFP construct.”, “50 μl of hybridoma supernatants” for “10 μg/ml RSPO1-Fc, RSPO2-Fc, RSPO3-Fc, RSPO4-Fc, or FZD8-Fc fusion proteins”, “30” for “15”, “antibody.” for “the Fc fusion proteins.”, “and” for “and with”

The target in another test is T3, binding of RSPO1 to LGR5 (Homo sapiens, UniProt Q2MKA7).
T3 construct: full-length human RSPO1, RSPO2, RSPO3 and RSPO4 were ligated in-frame to a human Fc region; made in house; host or cells: RSPO1-Fc: insect cells (baculovirus); LGR5 construct: transiently transfected HEK-293
T3 sequence (Q2MKA7 21-263): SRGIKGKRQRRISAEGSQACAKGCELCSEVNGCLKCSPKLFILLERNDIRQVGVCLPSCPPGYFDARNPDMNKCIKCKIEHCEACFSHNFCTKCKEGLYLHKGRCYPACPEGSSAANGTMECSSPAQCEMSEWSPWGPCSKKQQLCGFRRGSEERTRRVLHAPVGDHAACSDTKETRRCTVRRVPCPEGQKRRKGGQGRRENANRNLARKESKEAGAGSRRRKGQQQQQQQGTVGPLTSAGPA
The experiment in a line: FACS: blocking of soluble RSPO1-Fc binding to LGR5 on HEK-293 cells. Particulars: RSPO1-Fc 10 μg/ml, antibodies 10 μg/ml. The protocol: HEK-293 cells were transiently transfected with the FLAG-LGR5-CD4TM-GFP construct (previously described in Example 2). After 48 hours, transfected cells were suspended in ice cold PBS containing 2% FBS and heparin and incubated on ice in the presence of RSPO1-Fc protein (10 μg/ml) and antibodies 89M2, 89M4, 89M5, 89M7, 89M19 or 89M25 (10 μg/ml). A second incubation with 100 μl PE-conjugated anti-human Fc secondary antibody was performed to detect cells bound by the RSPO1-Fc fusion protein. The cells were analyzed on a FACSCalibur instrument (BD Biosciences, San Jose, Calif.) and the data was processed using FlowJo software.

Test [3] deals with RSPO1-induced β-catenin signaling. The experiment in a line: TOPflash luciferase assay in HEK-293 cells, Wnt3a plus human RSPO1. Format: cell-based. The following applies: Wnt3a 5 ng/ml, RSPO1 10 ng/ml; antibodies 10 to 0.625 μg/ml. The protocol:
HEK-293 cells were transfected with a 6×TCF-luciferase reporter vector (TOPflash, Millipore, Billerica, Mass.). After 24-48 hrs, the transfected HEK-293 cells were incubated with a combination of Wnt3a (5 ng/ml) and human RSPO1 (10 ng/ml, R&D BioSystems) in the presence of anti-RSPO1 antibodies 89M2, 89M4, 89M5, 89M7, 89M19, and 89M25, or 2 irrelevant control antibodies 254M14 and 254M26 (2-fold dilutions at 10 μg/ml to 0.625 μg/ml). The cells were incubated for 16 hours and luciferase activity was measured using Steady-Glo® Luciferase Assay System according to the manufacturer's instructions (Promega, Madison, Wis.).

The test system of a further test is OV19 ovarian tumor cells. Put plainly: OV19 ovarian tumor xenograft growth in NOD/SCID mice. Particulars: day 35, vs control antibody; antibodies 15 mg/kg once a week, intraperitoneal. Format: in vivo. As for the experimental part:
Dissociated OV19 ovarian tumor cells (1×10^5cells) were injected in the mammary fat pads of 6-8 week old NOD/SCID mice. Tumors were allowed to grow for 45 days until they reached an average volume of 134 mm^3. The mice were randomized (n=10 per group) and treated with anti-RSPO1 antibody 89M5, 89M25, taxol, a combination of 89M5 and taxol, a combination of 89M25 and taxol, or control antibody 1B7.11. Antibodies were dosed at 15 mg/kg once a week, and taxol was dosed at […] once a week. Administration of the antibodies and taxol was performed via injection into the intraperitoneal cavity. Tumor growth was monitored and tumor volumes were measured with electronic calipers at the indicated time points. Data are expressed as mean±S.E.M.

The target of test [4] is T2, human RSPO1. The experiment in a line: FACS binding of 89M5 and humanized 89M5 to HEK293 cells expressing FLAG-RSPO1furin-CD4TM-GFP. Particulars: five-fold serial dilutions. The protocol: HEK293 cells were transiently transfected with an expression vector encoding FLAG-RSPO1furin-CD4TM-GFP. As described in Example 5, FLAG-RSPO1furin-CD4TM-GFP is a chimeric fusion protein enabling cell surface expression of the N-terminal furin-like domains of human RSPO1. FLAG-RSPO1 furin-CD4TM-GFP transfected cells were incubated in the presence of anti-RSPO1 antibody 89M5 or humanized anti-RSPO1 antibody h89M5-H2L2. Five-fold serial dilutions of each antibody were examined for their ability to bind to the RSPO1 expressing cells. The cells were stained with Phycoerythrin conjugated anti-IgG to reveal bound antibody. The cells were analyzed on a FACSCalibur instrument (BD Biosciences, San Jose, Calif.) and the data was processed using FlowJo software.

For the molecule `Nc1ccn([C@@H]2O[C@H](CO)[C@@H](O)C2(F)F)c(=O)n1` [gemcitabine, reference compound], the “tumorigenicity of cells isolated from treated mice” value in the test with PN7 tumors is on record as “decrease in tumorigenicity”. In test [1], the “reduction in tumor growth” value stood at 49%.

B1: RSPO4: full-length human RSPO4 ligated to a human Fc region (protein)
chain: LNRRKKQVGTGLGGNCTGCIICSEENGCSTCQQRLFLFIRREGIRQYGKCLHDCPPGYFGIRGQEVNRCKKCGATCESCFSQDFCIRCKRQFYLYKGKCLPTCPPGTLAHQNTRECQGECELGPWGGWSPCTHNGKTCGSAWGLESRVREAGRAGHEEAATCQVLSESRKCPIQRPCPGERSPGQKKGRKDRRPRKDRKLDRRLDVRPRQPGLQP
modifications: left off: a dimerising Fc or GST
notes: full-length human RSPO4 ligated to a human Fc region
B1: the “binding to LGR5 expressed on the surface of HEK-293 cells” value with LGR5 is “bound”.

B2: 89M25: anti-RSPO1 monoclonal antibody; same heavy and light chain variable regions as 89M5 (antibody, V domains shown)
VH: EVQLQQSGPELVKPGASVKISCKTSGYTFTGYTMHWVRQSHGKTLEWIGGINPNNGGTTYNQNFKGKATLTVEKSSTTAYLELRSLTSEDSALYYCARKEFSDGYYFFAYWGQGTLVTVSA
VL: DIVMTQSHKFMSTSVGDRVNITCKASQDVIFAVAWYQQKPGQSPKLLIYWASTRHTGVPDRFTGSVSGTDYTLTISSVQAEDLALYYCQQHYSTPWTFGGGTKLEIK
On to B2, for which the “binding to RSPO1 (FACS)” value with human RSPO1 [2] was “bound”. For the same molecule, in the test with binding of RSPO1 to LGR5, the “blocking of binding of RSPO1 to LGR5” value is recorded as “blocked”. For the same molecule, the “blocking of RSPO1-induced β-catenin signaling” value in test [3] is listed as “blocked”. In the test with OV19 ovarian tumor cells, the “reduction in tumor growth” value was found to be 25%.

B3: h89M5-H2L2: humanized anti-RSPO1 antibody; heavy chain SEQ ID NO:68, light chain SEQ ID NO:69 (antibody)
heavy: QVQLVQSGAEVKKPGASVKVSCKTSGYTFTGYTMHWVRQAPGQRLEWMGGINPNNGGTTYNQNFKGRVTITRDTSASTAYMELSSLRSEDTAVYYCARKEFSDGYYFFAYWGQGTLVTVSSASTKGPSVFPLAPCSRSTSESTAALGCLVKDYFPEPVTVSWNSGALTSGVHTFPAVLQSSGLYSLSSVVTVPSSNFGTQTYTCNVDHKPSNTKVDKTVERKCCVECPPCPAPPVAGPSVFLFPPKPKDTLMISRTPEVTCVVVDVSHEDPEVQFNWYVDGVEVHNAKTKPREEQFNSTFRVVSVLTVVHQDWLNGKEYKCKVSNKGLPAPIEKTISKTKGQPREPQVYTLPPSREEMTKNQVSLTCLVKGFYPSDIAVEWESNGQPENNYKTTPPMLDSDGSFFLYSKLTVDKSRWQQGNVFSCSVMHEALHNHYTQKSLSLSPGK
light: DIQMTQSPSSLSASVGDRVTITCKASQDVIFAVAWYQQKPGKAPKLLIYWASTRHTGVPSRFSGSGSGTDYTLTISSLQPEDFATYYCQQHYSTPWTFGGGTKVEIKRTVAAPSVFIFPPSDEQLKSGTASVVCLLNNFYPREAKVQWKVDNALQSGNSQESVTEQDSKDSTYSLSNTLTLSKADYEKHKVYACEVTHQGLSSPVTKSFNRGEC
modifications: h89M5-H2L2 Heavy chain amino acid sequence; h89M5-H2L2 Light chain amino acid sequence
Turning to B3, in the test with human RSPO1 [4], the “binding to human RSPO1 (FACS)” value is “bind”.

B4: RSPO3: full-length human RSPO3 ligated to a human Fc region (protein)
chain: QNASRGRRQRRMHPNVSQGCQGGCATCSDYNGCLSCKPRLFFALERIGMKQIGVCLSSCPSGYYGTRYPDINKCTKCKADCDTCFNKNFCTKCKSGFYLHLGKCLDNCPEGLEANNHTMECVSIVHCEVSEWNPWSPCTKKGKTCGFKRGTETRVREIIQHPSAKGNLCPPTNETRKCTVQRKKCQKGERGKKGRERKRKKPNKGESKEAIPDSKSLESSKEIPEQRENKQQQKKRKVQDKQKSVSVSTVH
In the case of B4, the “binding to LGR5 expressed on the surface of HEK-293 cells” value with LGR5 was “bound”.
